{
  "source": "the DeepSol protein solubility set",
  "data": [
    {"experiment": "soluble on expression in E. coli; label from the status in PepcDB or PDB records", "values": [
      {"sequence": "SLRAERLTSRVKALFSVLNYERARRPGLLGASVLGLDDIHRAWRTFVLRVRAQDPPPELYFVKVDVTGAYDTIPQDRLTEVIASIIKPQNTYCVRRYAVVQKAAHGHVRKAFKSHVSTLTDLQPYMRQFVAHLQETSPLRDAVVIEQSSSLNEASSGLFDVFLRFMCHHAVRIRGKSYVQCQGIPQGSILSTLLCSLCYGDMENKLFAGIRRDGLLLRLVDDFLLVTPHLTHAKTFLRTLVRGVPEYGCVVNLRKTVVNFPVEDEALGGTAFVQMPAHGLFPWCGLLLDTRTLEVQSDYSSYARTSIRASLTFNRGFKAGRNMRRKLFGVLRLKCHSLFLDLQVNSLQTVCTNIYKILLLQAYRFHACVLQLPFHQQVWKNPTFFLRVISDTASLCYSILKAKNAGMSLGAKGAAGPLPSEAVQWLCHQAFLLKLTRHRVTYVPLLGSLRTAQTQLSRKLPGTTLTALEAAANPALPSDFKTILDEG", "soluble on expression in E. coli": "not soluble"},
      {"sequence": "MNVDVLLKNVWLYQTVTQTFVQRNVAIKNDKFYYIYEEENVNLQPQKTINAENQWMIPGLIDAHMHIESSMTTPTIFSKAVVRYGVTTVIADAHEMANVFGLEGLKAFMAAETELDIFHAIPSSVPSTTPELETTGGIIGLAEVAELLKEPKVICLGEAMNFKGISYEPDSLIRQIIDLCQKQRPTMPLEGHCPKIEDQELADFLYSGITSDHTHQFPKTLKEKIEAGVFIQFQNKSITPENIQVIVDNDFYNYASIITDDVMADDLLKGHLNENVKKAVHAGLPIEKAIYMATYTPAKRMGLHDRGEIAPGKKADFLLLNDLESFDINTVYKSGKVVFEKGEPFHYPEKIEEFPATYQQTIQCKKLTEEDLLLKVATTKETVRCNVIQKQEIGTFTERITKEIPVENGLLQWQKANCALLIVMERYGKNGNISFSLMDQPLSEKGAIATTWAHDHHNLMVMGNTIEDILLAQNELLAMQGGYLVASDQQVMATCPLPIGGILSQAPIEQLGASLQKVRQAMQALGYQNMNEIMSFSTLSLPVSPAIKVTDFGMMDTKSQRFYPLVFPEDGVLLHENTH", "soluble on expression in E. coli": "not soluble"},
      {"sequence": "MSLKNILIIGANGFTGRRILNDLSVNPIYHVTGCSLRDDICPGKDYRFVRTDIRDENEVRKLFKECRPDIVINTSALSVPDYCETHHAEAEATNVTAVETIAHVCEQYGSRFIHLSTDFVFDGKSTRLYKEEDEAIPVNYYGVTKLKAEKIIASICSNYAIVRVVVVYGKALPGQHGNILQLVANRLRNGETIRVVSDQWRTPTFVGDISVGVEKLMFHTANGIYHICGSECLTIAEIAYRVADFLKLDRSLIEPVTTEEMKEVTPRPRFSGLSIEKAKAEIGYTPRTLEEGMEASEGHHHHHH", "soluble on expression in E. coli": "soluble"},
      {"sequence": "MKRGKRLILPLLGTLILTSLFSCGVDRWPEYYPETGRDIWIDSVMRQEYLWYRDMPSPAAPDYFQKPEAFLKKAVASMDNGFSKIDSLLDEPIPSYGFDYTLYKVLDNDTAYNALISYVVPGSPAEEAGLQRGHWIMMMNGDYITKKVESELLQGSTRQLQIGVYKEVVGEDGEVTGGVVPIGETTMPASRSLVDKPVHRFEIIPWNGKKVGYLMYNEFKAGPTTDSQAYNDDLRRAFRDFQTGGVNEFVLDLRYNTGGSLDCAQLLCTMLAPADKMNQLLALLRYSDKRVEANQDLTFNPELIQSGANLNLSTVYVLTTNATRGAAEMVINCLNPYMKVVLIGTKTAGEYVATKPFVHPTDRFILNLVVCNVYNAEEKSDYATGFKPTYEYNEDSYLSTYLPFGNTNETLLNAALKIMSGITDK", "soluble on expression in E. coli": "not soluble"},
      {"sequence": "MGSDKIHHHHHHMEWILFDKDGTLIEFDSSWEKIGVRLVDQLLETFPVHDKEAAHRQLGIIDKKIKPDSVMGSGSLGEIIESFNGVTGKETSDWTRDTSQELIDSRVPENNWIDGVQETIQALRNEGYHIGIVTSDTKKGVDQFLEETQTRNLFDLVISTETHAEEKPHPKVLDPLFNAFDVEPGQVAIVGDTANDMKTAINANLGLGIGVLTGVAKKEELYDADVIINSAKDVKQVIEQYGK", "soluble on expression in E. coli": "not soluble"},
      {"sequence": "MEAASIAVPGAGASLRAQALDALMTPAWADKLAAVAAIDAGAPVGAQQDLAEPAGLPGRPPAPQLVPPSQVRQRSVQSPEGRAALLHALAHIEFNAINLALDAVWRYGGLPDAYYLDWLKVAREEAYHFDLLNRHLSGLGHAYGDFPAHNGLWEMAEKTRADLLARLALVPRTLEARGLDASPLIRDKLAAAGDADGAAILEIILRDEIGHVAIGNHWYKALCAQRGLDPVAQYAQLASRYGAPRLRGPFNLEARRAAGFDEDELRALLQAKLAAALEHHHHHH", "soluble on expression in E. coli": "soluble"},
      {"sequence": "MLPLSLLKTAQNHPMLVELKNGETYNGHLVSCDNWMNINLREVICTSRDGDKFWRMPECYIRGSTIKYLRIPDEIIDMVKEEVVAKGRGRGGLQQQKQQKGRGMGGAGRGVFGGRGRGGIPGTGRGQPEKKPGRQAGKQ", "soluble on expression in E. coli": "soluble"},
      {"sequence": "MGSDKIHHHHHHMKLGFITSILDSWTYEEMMDFASGQGFECVEVACWPQEKAERRYAGVSHIDAERVNQDDAYAEHIVEYAKKSGVEISALAYYPNVMVADKEKSATAVEHLKQVILASKKLGVGMVTTFIGRDQTKNIQENLELVKEIWPPIIKLAEECDVKIAIENCPMLFGKEQWPGGQNLMTTPPIWREVFRILDSDHLGINYDPSHFIWQMIDYIRPLYEFKDKIFHVHYKDIKIYKDKLESCGIMAYPLEYMSPKIPGLGDVDWGKYVSALTDIGYDGYTCIEIEDKAFEDFKEKVENSLIISKRYLEQYVI", "soluble on expression in E. coli": "not soluble"},
      {"sequence": "MAHHHHHHMLAGLLRGIRAATAPQRSRRRFLPRMRQRSSFSAVSSAAMFKNTLTTQRAQKGDYGFNVFHNSNPQHGGSYARHERRMREDEVEDFLKSVKHWRPLHEDVADGDLVDDAQSSSSTSAPAAGPPMPRLARMGEEAIMRTFQFETFREAYLFMGRVWAFCYGSDKYPHVTWEGTALTVYLYSSSFRGLSKREARVAAFLNDQYNMLRKSKWQQRRIVDGIVRQSAVEELLGEEVAAHLAHRETLRTAPLQEVQDGPRSWRSAIGSPLRSPNSGSDGAGSSMGVRES", "soluble on expression in E. coli": "not soluble"},
      {"sequence": "GMQTINATEIRNNFSYYIDTVVRDKPIAVKRNRDVLLFFSEQIIKDLLQDLKIHAELSKEDGIIIGTIDGFDLVVSGESEQEVIQKLAEDLLEYAQDYMNDFKLFYNAPNRKTHYPYILKVLLSSNIDEVKGYIYAEMV", "soluble on expression in E. coli": "soluble"},
      {"sequence": "MNRYITRGIDNNLPIILQQQLWKLVAQRENEQSKELEAIDYFHIFQFNMHNDQLCIKHKQERPEYIKTHKANYSKAINIKKVYIIREDDVDLSYYVMLLPEEYAAALEHHHHHH", "soluble on expression in E. coli": "soluble"},
      {"sequence": "MEESDVLISLIEILKIHQKVIDYDKFKDPEDYTPAIRSLATLELMFEYLIKESNTIFENAAVIVYTIVAKHPFFNGNKRTGYEAMNFIIEDGGYGFTSTDEEMIEFIIRVATTENEMSIEEIKEWIIRHTEKILLEHHHHHH", "soluble on expression in E. coli": "soluble"},
      {"sequence": "SLDRLYAKAMKSKYTKLLLENFLLSPYEMTDPAIMAGLQKNVYPKYDELKTLRGLEGVKKHLSYVREKQEPYSKGNIAKYLKKAIEQYLPTVKRQDID", "soluble on expression in E. coli": "soluble"},
      {"sequence": "MAKEFGRPQRVAQEMQKEIALILQREIKDPRLGMMTTVSGVEMSRDLAYAKVYVTFLNDKDEDAVKAGIKALQEASGFIRSLLGKAMRLRIVPELTFFYDNSLVEGMRMSNLVTSVVKHDEERRVNPDDSKEDLEHHHHHH", "soluble on expression in E. coli": "soluble"},
      {"sequence": "MCVKVACVGGGPAGLYLSILLKRQDPAHDVTVYERDPEGSTYGWGVTYWRGLLDRLRELDPGSARAVEEHSVRWRDGVAHVGGLATRHHGDEGFGIGRHRLLAILAARARELGVRLEFEHPVTGANPPAADLVVAADGAGSALRTHHADHFGTEITGGRDHYVWLGTTKVFDAFTFAFVETDHGWIWAYGYGFGPEGSTCVVECAPGTWTGLGLDRADEAEGLGLLEKLFADVLDGHPLSARSSGRASAAWPVFRTLTNRTWSRDNLVLLGDAAHTTHYSIGAGTTLALEDAMALATALRERDTLPDALAHYERERRAALLPVQSAARLSAQWYENLPRYIHLPPEQMFALLGQRHSPLLPHLPPRLYYRIDRAAGRLETLRRVKRRLGPVIARTVQARRLAAGDGRARSGRPDAVPAHRGLEHHHHHH", "soluble on expression in E. coli": "not soluble"},
      {"sequence": "MAHHHHHHMQYINDEGYRIDGRKNDECRLIKISLGNGNELIDVDGFSFFEIGNTKLFAYIQGPNEYRRPDEKCLVKCNVFLSPFNILEKKRKKSKDNVTREISSYIRNICNHIILLDLYKNSEINIFLYIIERDGGLKAAAVNTCILALIDAGIAIKYFISASSVLYLQNNIIVDGNQFEVNSGSPELTLAIDMSSNNIVLLEFDAEVPIDIFQSMLKTCAQACIHVGNIMKLSIKENAIKLLSLNSILNT", "soluble on expression in E. coli": "not soluble"},
      {"sequence": "MPTLQAAMFLEKDMQKNTLWFDSLSMQDVDKVGGKNASLGEMVSNLANAGVSVPNGFATTAYAFNQFLDFEGLDERIHQLLDELDVDDVDALRKTGATIRQWILQAPFPAELEQEIRTNYNQLIDGNSELSVAVRSSATAEDLPDASFAGQQETFLNVKGIDAVLEATKHVYASLFNDRAISYRVHQGFDHRGIALSAGIQRMVRSDKAASGVMFTLDTESGFDKVVFITAAWGLGEMVVQGAVNPDEFYVHKPLLEAGYPAIVKKTFGSKLSKMIYANSQVIGKQVEVVDTSAHERNQFSLTDAEIQELAKQALIIEKHYQRPMDIEWAKDGIDGKLYIVQARPETVCSQSEQNVIERYELSHKASVLLEGRAIGQRIGSGTVRLVDSLDQMSLVQQGDVLVTDMTDPDWEPVMKKAAAIVTNRGGRTCHAAIIARELGIPAIVGCGDATRRLSDGAQVTVSCAEGETGYVYAGQLDFAVRRSSVDELPMLPTKVMMNVGNPDRAFDFAQIPNEGVGLARLEFIINKMIGIHPKALLNFDTQSAELQTQILDRIRGYRDPIDFYVSKLTEGIATIAAAFWPKRVIVRMSDFKSNEYSNLLGGSEFEPHEENPMLGFRGASRYISPVFEDCFELETQAIKRVRHEMGLKNVEVMIPFVRTTGEAEAVIDLLAKFGLRRGEQGLKVIMMCELPSNAVLADEFLKFFDGFSIGSNDMTQLTLGLDRDSGDVAHLFDERNPAVKIMLKMAIDAATRAGKYVGICGQGPSDHDDLAQWLMEQGISSVSLNPDTVIDTWLKLGAVSKC", "soluble on expression in E. coli": "not soluble"},
      {"sequence": "MGSDKIHHHHHHMNKNQYPKWEELPELDLYLDQVLLYVNQLINPKTITNDKLLTASMINNYVKHNYISKPIKKKYNRRQVARLIVITAFKQVFAIQEISQTLELLTADNHSEEAYNGFAACMNKEEVHDLPPVVISACQTLNLYQETQKLVLELGGKNKNA", "soluble on expression in E. coli": "not soluble"},
      {"sequence": "VRLSRFDLAFDIFNRPEIVNLQHIKGGVTHKVFYGRGGELETKYWGSSGSNVQVRLYDKNKEIIAHKREEKLDLGVNPFWWRLEFQLRTKAIGEDMVQDIMNRLDNFGFYKLEHIRVDQRAFTIIFLSNPELLSLAFPNLKSDSIKKKKTRVRKLLREETNQFAEELKEVLIQNLPKLNTELQLLVGEFLTLEN", "soluble on expression in E. coli": "not soluble"},
      {"sequence": "CIPLWGTVSIQGNRSEMEDAFAVSPHFLKLPIKMLMGDHEGMSPSLTHLTGHFFGVYDGHGGHKVADYCRDRLHFALAEEIERIKDELCKRNTGEGRQVQWDKVFTSCFLTVDGEIEGKIGRAVVGSSDKVLEAVASETVGSTAVVALVCSSHIVVSNCGDSRAVLFRGKEAMPLSVDHKPDREDEYARIENAGGKVIQWQGARVFGVLAMSRSIGDRYLKPYVIPEPEVTFMPRSREDECLILASDGLWDVMNNQEVCEIARRRILMWHKKNGAPPLAERGKGIDPACQAAADYLSMLALQKGSKDNISIIVIDLKAQRK", "soluble on expression in E. coli": "soluble"},
      {"sequence": "MGSDKIHHHHHHMIAVLRINHRPFRDKRITTHVALTARAFGASSILVDEKDETLEQTINKVVENFGGNFFIKSGVDWKREFRNFKGIRVHLTMYGRPLEDVVKEIRESKKDVMILVGSEKVPFEAYEIADYNVSVTNQPISEVSALAIFLDRFYDGEELNWRFTGKINVYPSERGKKVKIIPDEQGCLDLLYKYGASDYLINHVKSVKELAVAIAKKTNADINLVTAGALLHDIGRTQVQGITHAVVGADILRREGIDDRVVSIVEKHIGAGIQSEEAVKLGLPPDNYVPETIEEMIVAHADNLFAGDKRLKLQQVVDNYRKKGLEDAAERIAKLHKFLSTVIGQDMDEI", "soluble on expression in E. coli": "not soluble"}
    ]}
  ]
}
